Results reported in PMC10516637, “FANCD2 and RAD51 recombinase directly inhibit DNA2 nuclease at stalled replication forks and FANCD2 acts as a novel RAD51 mediator in strand exchange to promote genome stability” (Nucleic Acids Research, 2023).

Biological target: T1, His-tagged human FANCD2 purified from E. coli (human, UniProt Q9BXW9 1-1451)
T1 construct: human FANCD2; non-ubiquitinylated single band on a gel; also called FANCD2-His; hFANCD2; source: E. coli BL21(DE3) CodonPlus, purified (Ni-NTA, Q Sepharose, Superdex 200)
T1 sequence (Q9BXW9 whole entry): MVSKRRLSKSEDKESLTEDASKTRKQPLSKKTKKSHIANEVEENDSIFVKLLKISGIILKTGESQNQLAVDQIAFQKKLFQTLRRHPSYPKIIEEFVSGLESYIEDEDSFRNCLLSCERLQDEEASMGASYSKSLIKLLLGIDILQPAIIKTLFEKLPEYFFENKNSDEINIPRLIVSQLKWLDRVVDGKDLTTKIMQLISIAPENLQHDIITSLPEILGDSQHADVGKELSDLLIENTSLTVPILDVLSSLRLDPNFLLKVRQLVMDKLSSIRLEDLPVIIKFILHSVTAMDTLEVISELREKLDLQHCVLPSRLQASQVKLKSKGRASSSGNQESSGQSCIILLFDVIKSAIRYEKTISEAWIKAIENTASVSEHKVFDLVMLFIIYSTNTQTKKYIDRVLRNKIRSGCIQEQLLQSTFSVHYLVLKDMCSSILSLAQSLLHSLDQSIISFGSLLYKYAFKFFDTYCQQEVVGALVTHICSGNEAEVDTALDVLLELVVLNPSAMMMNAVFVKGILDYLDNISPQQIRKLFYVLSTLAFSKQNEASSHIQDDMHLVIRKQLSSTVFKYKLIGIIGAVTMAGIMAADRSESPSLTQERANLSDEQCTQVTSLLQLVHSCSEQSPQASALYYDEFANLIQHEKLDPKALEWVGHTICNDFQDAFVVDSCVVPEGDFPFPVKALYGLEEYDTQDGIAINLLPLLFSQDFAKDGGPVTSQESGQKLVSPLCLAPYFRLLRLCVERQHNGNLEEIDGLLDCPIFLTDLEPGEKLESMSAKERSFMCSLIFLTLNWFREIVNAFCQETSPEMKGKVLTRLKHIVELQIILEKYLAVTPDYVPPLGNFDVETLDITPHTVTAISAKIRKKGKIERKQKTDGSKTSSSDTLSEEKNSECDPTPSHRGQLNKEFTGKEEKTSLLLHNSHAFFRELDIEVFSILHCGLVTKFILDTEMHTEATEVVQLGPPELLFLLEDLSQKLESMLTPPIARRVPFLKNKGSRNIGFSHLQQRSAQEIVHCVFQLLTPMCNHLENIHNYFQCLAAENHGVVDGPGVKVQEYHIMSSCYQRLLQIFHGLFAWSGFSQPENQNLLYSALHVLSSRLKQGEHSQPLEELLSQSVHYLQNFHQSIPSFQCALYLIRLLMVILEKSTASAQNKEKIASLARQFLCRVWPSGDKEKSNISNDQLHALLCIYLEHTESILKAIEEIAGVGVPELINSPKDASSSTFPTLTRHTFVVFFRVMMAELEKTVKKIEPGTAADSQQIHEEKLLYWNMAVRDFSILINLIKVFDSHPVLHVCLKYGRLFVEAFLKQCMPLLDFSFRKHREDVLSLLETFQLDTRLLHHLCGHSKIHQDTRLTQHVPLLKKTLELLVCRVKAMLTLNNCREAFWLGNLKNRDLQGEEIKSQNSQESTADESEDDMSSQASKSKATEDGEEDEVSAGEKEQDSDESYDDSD
Test: pull-down; FLAG-DNA2 purified on M2 FLAG beads, incubated with purified FANCD2 (1 ug/ml) at 4 C for 1 h; washed with PBS 5 times; western blot; empty M2 beads as control
Conditions: both partners purified

- binding result: binds
B1: FLAG-tagged human DNA2 from 293T cells (enzyme, UniProt P51530 1-1060, looked up)
chain: MEQLNELELLMEKSFWEEAELPAELFQKKVVASFPRTVLSTGMDNRYLVLAVNTVQNKEGNCEKRLVITASQSLENKELCILRNDWCSVPVEPGDIIHLEGDCTSDTWIIDKDFGYLILYPDMLISGTSIASSIRCMRRAVLSETFRSSDPATRQMLIGTVLHEVFQKAINNSFAPEKLQELAFQTIQEIRHLKEMYRLNLSQDEIKQEVEDYLPSFCKWAGDFMHKNTSTDFPQMQLSLPSDNSKDNSTCNIEVVKPMDIEESIWSPRFGLKGKIDVTVGVKIHRGYKTKYKIMPLELKTGKESNSIEHRSQVVLYTLLSQERRADPEAGLLLYLKTGQMYPVPANHLDKRELLKLRNQMAFSLFHRISKSATRQKTQLASLPQIIEEEKTCKYCSQIGNCALYSRAVEQQMDCSSVPIVMLPKIEEETQHLKQTHLEYFSLWCLMLTLESQSKDNKKNHQNIWLMPASEMEKSGSCIGNLIRMEHVKIVCDGQYLHNFQCKHGAIPVTNLMAGDRVIVSGEERSLFALSRGYVKEINMTTVTCLLDRNLSVLPESTLFRLDQEEKNCDIDTPLGNLSKLMENTFVSKKLRDLIIDFREPQFISYLSSVLPHDAKDTVACILKGLNKPQRQAMKKVLLSKDYTLIVGMPGTGKTTTICTLVRILYACGFSVLLTSYTHSAVDNILLKLAKFKIGFLRLGQIQKVHPAIQQFTEQEICRSKSIKSLALLEELYNSQLIVATTCMGINHPIFSRKIFDFCIVDEASQISQPICLGPLFFSRRFVLVGDHQQLPPLVLNREARALGMSESLFKRLEQNKSAVVQLTVQYRMNSKIMSLSNKLTYEGKLECGSDKVANAVINLRHFKDVKLELEFYADYSDNPWLMGVFEPNNPVCFLNTDKVPAPEQVEKGGVSNVTEAKLIVFLTSIFVKAGCSPSDIGIIAPYRQQLKIINDLLARSIGMVEVNTVDKYQGRDKSIVLVSFVRSNKDGTVGELLKDWRRLNVAITRAKHKLILLGCVPSLNCYPPLEKLLNHLNSEKLIIDLPSREHESLCHILGDFQRE
notes: human DNA2 helicase/nuclease; also called FLAG-DNA2; hDNA2; source: 293T, over-expressed, purified (M2 FLAG beads, 3x FLAG peptide elution); HEK-293T, over-expressed, in lysate
